How the values were obtained:
[1] = target: T1, Recombinant Human E-cadherin Fc chimera (BioLegend) (human, UniProt P12830 155-707); experiment: phage display panning
T1 construct: also called human Ecad Fc chimeric protein; recombinant human Ecad Fc chimera; Fc part of the bought chimera not given
T1 sequence (looked up): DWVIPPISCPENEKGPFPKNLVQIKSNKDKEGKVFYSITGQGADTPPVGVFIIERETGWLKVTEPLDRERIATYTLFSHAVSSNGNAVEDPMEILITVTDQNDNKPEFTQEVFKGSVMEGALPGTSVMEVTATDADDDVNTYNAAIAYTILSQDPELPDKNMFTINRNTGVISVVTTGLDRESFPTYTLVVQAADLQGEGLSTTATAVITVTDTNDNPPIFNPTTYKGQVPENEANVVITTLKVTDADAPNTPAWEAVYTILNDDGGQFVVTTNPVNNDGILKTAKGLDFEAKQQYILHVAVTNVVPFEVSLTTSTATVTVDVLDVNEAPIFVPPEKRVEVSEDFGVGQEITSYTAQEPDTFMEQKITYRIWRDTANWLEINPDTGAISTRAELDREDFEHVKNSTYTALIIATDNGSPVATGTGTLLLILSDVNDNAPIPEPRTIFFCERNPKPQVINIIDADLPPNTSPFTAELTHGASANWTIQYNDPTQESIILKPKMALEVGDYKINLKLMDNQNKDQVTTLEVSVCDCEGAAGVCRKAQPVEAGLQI
Source text: (§1) hmcECAD.6 scFv sequence was generated and optimized for binding to Ecad protein through phage display library selection. A naive human scFv library of approximately 2×10⁹ diversity was used to screen against recombinant Ecad protein (Biomolecular Discovery, Rochester, NY). The hmcECAD.6 scFv clone was identified after two rounds of screening against mouse Ecad followed by another round of panning on human Ecad Fc chimeric protein (both from BioLegend, San Diego, CA). […] Final hmcECAD.6 sequence (SEQ ID NO: 90) was codon optimized for cloning of heavy and light chain into EcCAR plasmid.

[2] = target: T2, mouse Ecad (recombinant protein, BioLegend) (mouse, UniProt P09803 157-709, limits assumed); experiment: phage ELISA; relative affinity estimated against the FLAG antibody signal
T2 construct: Bought recombinant protein; Also used here for the general statements of mouse cross-reactivity; also called mouse E-cadherin
T2 sequence (looked up): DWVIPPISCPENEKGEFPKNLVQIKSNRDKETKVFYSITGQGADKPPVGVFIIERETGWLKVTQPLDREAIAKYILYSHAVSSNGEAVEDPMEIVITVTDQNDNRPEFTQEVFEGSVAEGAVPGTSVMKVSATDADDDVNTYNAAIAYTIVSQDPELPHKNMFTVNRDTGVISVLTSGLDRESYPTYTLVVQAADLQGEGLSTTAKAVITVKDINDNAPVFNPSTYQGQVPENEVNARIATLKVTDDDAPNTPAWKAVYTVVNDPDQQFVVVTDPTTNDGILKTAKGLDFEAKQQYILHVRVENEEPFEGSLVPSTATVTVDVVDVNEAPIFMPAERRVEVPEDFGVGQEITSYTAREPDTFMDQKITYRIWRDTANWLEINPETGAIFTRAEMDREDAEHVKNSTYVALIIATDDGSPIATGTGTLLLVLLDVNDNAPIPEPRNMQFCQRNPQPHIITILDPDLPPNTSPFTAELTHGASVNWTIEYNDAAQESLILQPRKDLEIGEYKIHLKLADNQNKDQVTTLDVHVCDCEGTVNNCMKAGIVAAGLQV
Source text: as §1

B1: hmcECAD.6 scFv clone (scFv)
scFv: LPVLTQPPSASGTPGQRVTISCSGSSSNIGSNYVYWYQQLPGTAPKLLIYRNNQRPSGVPDRFSGSKSGTSASLAISGLQSEDEADYYCASWDTSLRAWVFGGGTKLTVLGEGKSSGSGSESKASEVQLVQSGGGLVQPGGSLRLSCAASGFTFSSYSMNWVRQAPGKGLEWVSYISSSSSTIYYVDSVKGRFTISRDNAKNSLYLQMDSLRAEDTAVYYCARGGRVLVGALFDYWGQGTLVTVSS
notes: Human scFv from a naive phage display library; also called anti-hmcECAD.6; anti-Ecad scFv
[1]
  binding result: binds
[2]
  Kd: ~5 nM

— patent publication US20260240994A1 (MAYO FOUNDATION FOR MEDICAL EDUCATION AND RESEARCH, published 2026)
